According to PMC7081908:
“And” between values parts separate entries of the source, which are not always exact repeats. Equal values may be shown once.

biological target: IgG-CD4 protein (fusion protein of human CD4 domains 1 and 2 with human IgG1 Fc at the C terminus) (human); experiment: BLI; Octet QKe; IgG-CD4 loaded onto protein G sensors at 20 ug/ml in ForteBio kinetics buffer; serial dilutions of gp120 (600 nM to 0.4 nM) in solution; Kd = koff/kon, 1:1 fitting model; two GMP lots of each gp120

Row | Substance | Kd
1 | GMP-grade gp120 protein, HIV-1 clade AE consensus | 24.6 nM and 18.4 nM
2 | GMP-grade gp120 protein, HIV-1 clade C isolate 93MW965.26 (natural protein) | 157 nM and 115 nM
3 | GMP-grade gp120 protein, HIV-1 clade B isolate JRFL (natural protein) | 7.44 nM and 4.87 nM
